For 16 sequences, protein production results are on record in a protein production outcome set (Wang et al. 2014).

The nature of the data set: label from the status in PepcDB records.
Turning to “MGTSDEEIDRLLGKLTPRARALLLNGATTWRTRAEPAVELRELVMSDGPAGVRGEAWDERSTSLLLPSASALAATWDEALVEDLGGLLAAEARRKGVDVLLAPTLNLHRSPLGGRHFECLSEDPELTGRIGAALVRGIQAHGVAATAKHYVANDSETDRLTVDVRVGERALREVYLAPFEAAVAAGVRLVMAGYNAVNGTTMTANALLTDPLKSEWGFDGVVVSDWGAVRGTTGTARAGLDLAMPGPDGPWGEALARAVAEGAVPEPAVDDKARRLLRLAAWLGALGGRDVSRSPVPGRPADSPGAEGADGGAGAGPSSGAEGLPGRGPAHGAKPSGPRPRRAGDGRALARRAVAAGAVLLANKDVLPLDPEHLGTVAVIGAHAARTRTQGGGSAGVFPRGEVSVLDGIRAELRGRARVVHVPGPRPDGPAPPLDPDTCTDPRSGLPGVLLRMLDADGRELYAERRRGGRLLEPRLVPGAHTVEIRARLCPRTGGSWSLGVAGFGRMSLTTDGRTLLEGDFPPSTDDPAVMHVNPPAQYATADLTAGRDTLLVARRELAPGTGRATVLVAAPPAPDVTASLAEAVRAAGAADAAVVVVGTTEHGESEGYDRTDLALGATQDALVRAVAAANPRTVAVVNSGGPVELPWREQAGAVLLAWFPGQEGGGGLADVLFGHAEPGGRLPTTWPAVLADAPVTRTRPDGGRLDYDEGLHLGHRGWLRHHRTPAYWFGHGLGYTTWRYEELTVPPVTRAGDGLTVRVRVRNTGARAGREVVQVYLARPASALDRPARWLAGYTAVRARPGETVTATVRVPARALRHWSVAEHAWRTEAGPCRVLAGRSAGDVPLAAEVEVVPTASA”, the protein production entry was “failed”. For “MGVATMVTDKYQKCIDACNRCSQACYECFKACLNEPDVNARRTCISILFECAQMCQMSSALMSMDAQFAIDHCKLCSVICDKCAQECSMFQDPHCQKCANECRTCSNECRMMSGMLEHHHHHH”, the protein production entry is “not failed”. For the sequence “MGVLAEVYEMLNTCNRCGFCHTACKTYKVDGAETMVSRGRVQLIKAVADGVIEADADYEDSINSCLLCGECAVACPSGVSAKELVMAARRDLKLRHGLEHHHHHH”, the protein production result is on record as “not failed”. Consider “MGVLAEVYEMLNTCNRCGFCHTACKTYKVDGAETMVSRGRVQLIKAVADGVIEADADYEDSINSCLLCGECAVACPSGVSAKELVMAARRDLKLRHGVKPFVKSYALKTLANPNKLERAFKLFGGLGKNVLNKVDGMDYFRGVDIKGMNVAKVPFLNQVPERILVAQPKHKVAFYVGCFLNFSLDDTAHSVVKVLTKNDCEVIIPKEQVCCGLPQYAYGDFETAKVNARKTIDTFMAKDVEAIITACGSCAAMLKEDYLKLFADDAAYLPRVKSFCAKVKEFSEYMAEIGVDESKFHNSTPVKVTYHDPCHMVRGIKVTAQPRQMLKSLPRVEYIEMFEANRCCGASGLVQAFYHEMSTKVTREKAKNIQDSGAEVVATSCPACIMRLQGGVSMAGQKQKVMHVADLMAKAYEN”, for which the protein production entry was “failed”.

For “MGVRLAVRCFVVDGVLIDTGAKSMENEFTSFFQQQDIDQVVITHFHEDHTGCAAFLQRSMGLPIYMNEPMIEYCRQKADYPLYRKIFWGKRDPFAAKPIGATFSSRNATWDVIPTPGHAIDHVVFLNRETGQLFSGDLYCQEKTKVILREEDIPTIIASLQHVLTYDFGDVFCAHAGYLPLEHHHHHH”, the protein production entry is given as “failed”. Take “MGVVLIDGSTVRSFVDDEEQFKKSVDERFAALDLNKDGVLSRSELRKAFESMRLLESHFGVDVVTPQDELTNLYDSIFEKFDTDQSGSVDLEEFRSEMKKIVLAIADGLGSCPITMVLDDDDDNFLKKAADLEASKLEKASS”: the protein production result is given as “failed”. In the case of “MGVVRPAEQQSRIAARRVALLEKVDYRLAETPAEREAIYRLRYRAYLKEGAIDANSSGIVTDRYDDLPNSWIFGVFYEGELSSSLRITVASPDHHDCPSMDVFPDFLQPWLAEGKVIVDPTRFVADPTSANRLPELPYLTLRLAYVSCEYFNADIGLASVRTEHQAFYRRVMMRS”, the protein production entry is recorded as “failed”.

As for “MGWQTLKQQSVPARKRLLYLHIPFCATHCTFCGFYQNKLRDDSTATYTRYLLQELAMEADSPLHQSAPIHAVYFGGGTPTALAADELSQIIRAIRTSLPLAPDCEITVEGRAMDFDDERIDACLDAGANRFSIGIQTFDTRIRQRMARTSDKQQSIRFLERLCGRDRAAVVCDLMFGLPGQTPEIWREDLAIVSDLPLDGVDLYALNLLPTTPLAKAAENQRVALPDVVARRDFYRTGAAFLADSGWHQLSNSHWARTTRERNLYNLLIKQGADCLAMGSGAGGNINGQAYMMERSLERYYQQIDQGQKPIMMMTPASSTGPWQHQLQAGIEVGRIKLPQLTQHARELQPLLSQWHQAGLTCDDSTCLRLTNDGRFWANNLMQALQQIIPQLNAEEHAHLEHHHHHH”, the protein production entry was “failed”. For “MGYFYVLLAAFLWGLIGPLSRMAFQEGLTPLTVAFYRALLSWIFFLAHAARTGGLRVAPRDLPVFPLFGLLGVALFYGAYQLAVLYGGAALASVLLYTAPAWVALLSWAFLREPPTARSWGAVALTLLGVGLLGLGGGSEVRFGVRAFLFGLASGFFYALHYLLGKLYLGRYATPTFFAYALPVAALALAPWAEFGPLTPRALGALLALSLFSTYGAYLAFYAGLRRLPATVASVVATLEPVVAVVLAYLLFGEVLSPLGYFGALLVILAVLLAVRR” the value was “failed”; for “MGYNTIPAGKDLPNDIYVAIEIPANASPIKYEIDKDMDALLVDRFMATPMFYPANYGYINNTLADDGDALDVLVITPYPVAPGSVIRARPVGVLKMSDEAGGDEKLLAVPHEKLTQLYNDIHDIDDVPQLLKDQIVHFFEHYKDLEKGKWVKVEGWENADAARAAIVKSAAAYKG”, “not failed”; for “MGYRNLQDCVFDLEARGDLVRIDVETDPNIEIGAIQRRVYQAGGPALLFTRVKGCRFPMLGNLFGTMARTKFIFRDTLDDIRRLVELKINPTAVLKNPKEYAGAPLAALRLLPRQVSRGPILGHRTTIAELPQLKSWPMDGGPFVTLPQVYSESPKRPGFRFSNLGMYRVQLAGNDYRLNEEVGVHYQIHRGIGVHHAEAIERGEPLRVNIFVGGAPSMTVAAVMPLPEGLPELSFAGLLAGHRLAMVCRRGELPMPAEADFVITGTIDPNKTLPEGPFGDHLGYYSLAHPFPVLRVENVWHRDDAIWPFTSVGRPPQEDTTFGAFIHELTGALIPEVLPGVKGVHAVDAAGVHPLLLAVGSERYVPYEAERVPRELLTIASAILGNGQLSLAKYLFITPNEDNPPDIHHIDEFLTFILERADWRRDLHFHTRTTIDTLDYSGSGLNEGSKVIVAAAGPKRRDLPTEVPGGLRLPDGFTTPHVCLPGILAVTGPAFPGYGDNGAPDMERFCASFAPDDPINRFPLVVIVDDSAFTSRTLNNFLWVTFTRSNPAADIHGIGSSVRCKHWGCGGALVIDARVKPHHAPPLLDVPEIERRVDALGAPGGPLRGII”, “failed”. Take “MGYSRSREIRRWEMRKMKAAGLSVEEAYSDEEGGLVPDLVYKESSSEFLGNKVFDPVLRNKIEIEKPGTEISAVAKRGSVFLSVHPRSYVAPSASGEVDREVSQRLPIESFRDDLMEFVGKHRVIVLVGETGSGKSTQVPKYLYQEGYGDKGIIGCTQPRRAAAISLASTLKREMGCAVGYSIRFDSTTTQDTKIRYMTEGILLQELLADKMLRRYSVVILDEAHERTTNLDISMGLLKLALKERDDLRIIIMSATIEAQKLCNYFGCPAFNIEGRSYPVETRYLSVNVDDYVEWTVKKILYIHENCGEGDILVFVTGRDDVEGVVGIVNHCIRNKCFGEGSEGGRGLKVLPFYSQLPEEMQNRVFQAEKDVRKCIVSTNVAETSLTIPNIGYVIDTGLQKISVYSYDTGESLVTVPISRANADQRTGRAGRTRPGVCYRMYTADTYENDMLPSPVPEIQRTNIHNVVLLLLKHGVHDILGFDFVDRPSEELIQGALLGLHRLGAVCSRGLLTKVGKEMSELRLDPPLARMVLGAAGYGAVNEIASIASMLSVHEVFHRDFDKSSPLCHQGCDFLTLLNIFNAFIRQKNRSEWCNKMKVSEHALKRATETKRAVLMSLREMGVPISSTRSLDKIQRCIISSVHYNVARRRGKGYVCLSNFRACMVHPSSVLADSYSQYIIFYKHLSTRAEYMYCCSNISPQVILEEAGCYYRDRNGVFNIQKHPVIEDGLDREHNPFGSACSLTGARMPGKIALDENLYDRFEKWNESEESDEEPPKKIRRTRI”: the protein production result is listed as “failed”. Regarding “MHAKFLDTLDWGILIAYFLILIAIGIWASSKRKKGSSLFLAEHSLRWHHIGFSMWGTNVGPSMLIASASAGFTTGIVSGNYAWYAFVFICLLAFVFAPRYLGSRVSTLPEFMGKRFGQSTRNILAWYTIVTILISWLALTLFAGGVLIRQVFDIPMWQSALILLIISAFFTMLGGLKAVAYTNVYQMILLILVSAALAIVGIYKVGGISALTDAVPADFWNLFRPNDDTAFPWLPIILGYPVMGVWFWCTDQSMVQPVLAAKSLKEGQLGTNFTGWLKILDVPLYILPGIICLALFPQLENPDEAYMTMVTHLFPVGMVGLVLAVLTAALVSTIGSALNALSTVFTMDIYVKKIRPQAKQKEIIRVGQVVTVAGALISVIITIAIDSIHGLNLFNVFQSVLGFIAPPMAAVFLFGVFWKRTTTLAANAALTVGTVFSIGVGVLYLWVFPADQYSAWPHFMLLSFYLFVIIGIGMVVVGLLDKTPQTAILNMEKIEEKPARIVLILWGLLIVTMIGLYIFFNGH”, the protein production result is reported as “failed”. As for “MHALIVVAHHHPRSLTHALAARIAEGVVRAGHSAETADLAAEGFEPRFGLADHAVHRGQASPPADVLAEQARIDRADTLVLVYPIYWWSMPALLKGWIDRVFSNGWAFDYSIGGDLRKKLQRLRVVLVGVGGADAGTFERHGYAGAMRTQIDHGIFDYCGARVVRSELLLESESADPIRHLDQALHIGSQLFAARGAQGAAQAQPLEA”, the protein production entry is “failed”. As to “MHATQAILQGLRPVWTRPARLILTTPMSTTPPVPSPLQRGTLKQRRNTLPKRSNRHRDGRVYYANLAATMIARDNLRAAQIILAESHRRHPAFCDTRLMEAGVHLSLGRSDAAEAALRICHEAEPDEQRAVSGLVEIALERADATTARQLLEDQPQTPTFDLARARIALFNGDPSAARTFLDAHPAEGSTTVLAAFADAMEGDLDTAIARLNAQANRTDAALALAALQAAAGVVPDAAPSSPTASFFTALNPAANDDRRAALNAAEGFEQGFTAAGLDAVPQGSPDLALGVVFRLWGFHGAALERLVAASNDDPENPLAAYFVAVAHLKLGQNAQAEAALAKARTAAPSFFAANIAAAELRIRAGAPQEALAMLKAAVAVREDPGALMRIGLIEESFGDDDTARAAYERFVAVQPGSYIGYNQLAWHLARRGIELDRAQELAERANTLQPENASVLDTLGWIAFLRGDGAGAIERLRAAHEISQGDIPIISFHLAQAELKYGETPRGIALLQDLTAAGPAAYPFSQEATDILAKALQ”, the protein production result was “failed”.

“MHEKTKFRLHSHDVPYGSGSGQQSVTGFPGVVDSNSYWIVKPVPGTTEKQGDAVKSGATIRLQHMKTRKWLHSHLHASPISGNLEVSCFGDDTNSDTGDHWKLIIEGSGKTWKQDQRVRLQHIDTSGYLHSHDKKYQRIAGGQQEVCGIREKKADNIWLAAEGVYLPLNESSK”: the protein production entry is “not failed”.
